Assay results from US20260125649A1, “MEDIUM COMPOSITION AND METHOD FOR CULTURING MESENCHYMAL STEM CELLS” (ACADEMIA SINICA, priority 2018, published 2026).

Columns and labels:
Format in all cases: cell-based, human
STAT3 (Tyr705) = assay: STAT3 phosphorylation by Western blotting; details: MSCs treated with the substance
Method: After treatment, the protein levels of total STAT3 and phospho-STAT3 (Tyr705) were examined by Western blotting. […] Cell cycle progression was investigated by flow cytometry with PI staining. Fraction of cells in each phase (G1, S, G2/M) of the cell cycle was evaluated. Cells expressing STAT3 shRNA were treated with EpEX for 18 h, after which cell cycle progression was investigated by flow cytometry with PI staining. Fraction of cells in each phase (G1, S, G2/M) of the cell cycle was evaluated. […] The protein levels of cell cycle regulators (cyclin D1, cyclin D2, cyclin E1, CDK4 and CDK9) and pluripotency factors (Oct4, Sox2, c-Myc, Lin28) were examined by Western blotting. MSCs expressing STAT3 shRNA or shLuc were stimulated with EpEX. After treatment, the protein levels of cell cycle regulators (cyclin D1, cyclin D2, cyclin E1, CDK4 and CDK9) and pluripotency factors (Oct4, Sox2, c-Myc, and Lin 28) were examined by Western blotting. […] After treatment, the gene expression of pluripotency factors (Oct4, Sox2, c-Myc, Lin28 and EpCAM) was examined by qPCR.
FIG. 8. EpEX and EGF induce the phosphorylation of EGFR and STAT3. […] The phosphorylation of EGFR (Tyr845) and STAT3 (Tyr705) were examined by Western blotting with specific antibodies.
Western blotting was performed as previously described (Takahashi et al., 2003). […]

MSCs = assay: Cell cycle progression by flow cytometry with PI staining; details: EpEX, at 18 h; from 6.5% without EpEX
Method: Phospho-EGFR (Tyr845) was detected by Western blotting. […] After treatment, cell cycle progression was investigated by flow cytometry with PI staining. Fraction of cells in each phase (G1, S, G2/M) of the cell cycle was evaluated. Cells that expressed EGFR shRNA or shLuc were treated with EpEX for 18 h. After treatment, cell cycle progression was investigated by flow cytometry with PI staining. Fraction of cells in each phase (G1, S, G2/M) of the cell cycle was evaluated. […] The protein expression of cell cycle regulators (cyclin D1, cyclin D2, cyclin E1) and pluripotency factors (Oct4, Sox2, c-Myc, Lin28) was examined by Western blotting. MSCs expressing EGFR shRNA were stimulated by EpEX. After treatment, the protein expression of cell cycle regulators (cyclin D1, cyclin E1, CDK4 and CDK9) and pluripotency factors (Oct4, in Sox2, c-Myc, and Lin 28) was examined by Western blotting. […] After treatment, the gene expression of pluripotency factors (Oct4, Sox2, c-Myc, Lin28 and EpCAM) was examined by qPCR.
After treatment, the protein levels of total STAT3 and phospho-STAT3 (Tyr705) were examined by Western blotting. […] Cell cycle progression was investigated by flow cytometry with PI staining. Fraction of cells in each phase (G1, S, G2/M) of the cell cycle was evaluated. […] Fraction of cells in each phase (G1, S, G2/M) of the cell cycle was evaluated. […]

RUNX2 = RUNX2 gene expression by qPCR during osteo-induction; details: EpEX in osteogenetic medium
Method: Calcium precipitation was measured by Alizarin Red S (ARS) staining to probe the efficiency of osteogenesis. […] Quantification of osteogenesis, as measured by ARS staining, is shown for each group. MSCs were induced by osteogenetic medium and treated with EpEX at indicated doses. The gene expression of RUNX2 was examined by qPCR. […] ARS staining was performed to check the efficiency of osteogenesis. MSCs were pretreated with let-7 inhibitor and then treated with EpEX for 14 days during osteo-induction. ARS staining was performed to check the efficiency of osteogenesis. […] RUNX2 gene expression was measured by qPCR. MSCs were pretreated with let-7 inhibitor and induced by EpEX. RUNX2 gene expression was examined by qPCR. […] Upon EpEX stimulation, phosphorylation of EGFR-STAT3 signaling is induced and subsequently upregulates the level of Lin28 which inhibits let-7. […]
Total RNA was extracted using TRI reagent (Invitrogen, CA, USA), and 5 μg of total RNA was reverse transcribed using oligo (dT) primer (Fermentas, Glen Burnie, MD, USA) with SuperScript III reverse transcriptase (Invitrogen). Quantitative real time RT-PCR (qPCR) was performed on cDNA using the Light Cycler 480 SYBR Green I Master kit (Roche Applied Science, Indianapolis, IN) and the LightCycler480 System (Roche Applied Science). […]

B1: EpEX: extracellular domain of human EpCAM, 265 amino acids in length (SEQ ID NO: 2) (protein, listed as Homo sapiens)
chain: MAPPQVLAFGLLLAAATATFAAAQEECVCENYKLAVNCFVNNNRQCQCTSVGAQNTVICSKLAAKCLVMKAEMNGSKLGRRAKPEGALQNNDGLYDPDCDESGLFKAKQCNGTSMCWCVNTAGVRRTDKDTEITCSERVRTYWIIIELKHKAREKPYDSKSLRTALQKEITTRYQLDPKFITSILYENNVITIDLVQNSSQKTQNDVDIADVAYYFEKDVKGESLFHSKKMDLTVNGEQLDLDPGQTLIYYVDEKAPEFSMQGLK
For B1, the STAT3 phosphorylation (STAT3 (Tyr705)) was “stimulates”, the “percentage of cells in G2/M phase” value (MSCs) was 29.3% and the RUNX2 transcript level (RUNX2) was “increased”.
